Columns and labels:
[1] = test system: HeLa Kyoto; assay: solubility change mitosis vs G1/S (difference of NP-40 vs SDS log2 ratios) (log2 ratio difference); higher = more soluble in mitosis
[2] = test system: HeLa Kyoto; assay: melting temperature (median over replicates), in situ; higher = more thermally stable
[3] = test system: HeLa Kyoto; assay: thermal stability score vs G1/S (z-score of summed log2 fold changes over temperatures); higher = more thermally stable than in G1/S
[4] = test system: HeLa Kyoto; assay: solubility in G1/S (NP-40 vs SDS abundance) (log2 ratio); higher = more soluble; conditions: cell cycle stage: G1/S
[5] = cell cycle stage: early G1 (4.5 h after nocodazole release)
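For melting temperature (median over replicates), in situ in this document: HeLa Kyoto cells synchronized by double thymidine or nocodazole block, proteins quantified by TMT10plex mass spectrometry, three independent biological replicates.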
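For solubility change mitosis vs G1/S (difference of NP-40 vs SDS log2 ratios) in this document: synchronized HeLa Kyoto cells (double thymidine block for G1/S, nocodazole release for mitosis), protein amounts in NP-40 versus SDS lysates quantified by mass spectrometry, three biological replicates.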
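For solubility in G1/S (NP-40 vs SDS abundance) in this document: HeLa Kyoto cells arrested at G1/S by double thymidine block, proteins quantified by TMT10plex mass spectrometry in mild NP-40 versus SDS extracts, three biological replicates.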
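For thermal stability score vs G1/S (z-score of summed log2 fold changes over temperatures) in this document: synchronized HeLa Kyoto cells, proteins quantified by TMT10plex mass spectrometry, three biological replicates, mitosis taken 0.5 h after nocodazole release, G1/S directly after double thymidine block.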

SAFB2, sequence (chain, as listed by the source): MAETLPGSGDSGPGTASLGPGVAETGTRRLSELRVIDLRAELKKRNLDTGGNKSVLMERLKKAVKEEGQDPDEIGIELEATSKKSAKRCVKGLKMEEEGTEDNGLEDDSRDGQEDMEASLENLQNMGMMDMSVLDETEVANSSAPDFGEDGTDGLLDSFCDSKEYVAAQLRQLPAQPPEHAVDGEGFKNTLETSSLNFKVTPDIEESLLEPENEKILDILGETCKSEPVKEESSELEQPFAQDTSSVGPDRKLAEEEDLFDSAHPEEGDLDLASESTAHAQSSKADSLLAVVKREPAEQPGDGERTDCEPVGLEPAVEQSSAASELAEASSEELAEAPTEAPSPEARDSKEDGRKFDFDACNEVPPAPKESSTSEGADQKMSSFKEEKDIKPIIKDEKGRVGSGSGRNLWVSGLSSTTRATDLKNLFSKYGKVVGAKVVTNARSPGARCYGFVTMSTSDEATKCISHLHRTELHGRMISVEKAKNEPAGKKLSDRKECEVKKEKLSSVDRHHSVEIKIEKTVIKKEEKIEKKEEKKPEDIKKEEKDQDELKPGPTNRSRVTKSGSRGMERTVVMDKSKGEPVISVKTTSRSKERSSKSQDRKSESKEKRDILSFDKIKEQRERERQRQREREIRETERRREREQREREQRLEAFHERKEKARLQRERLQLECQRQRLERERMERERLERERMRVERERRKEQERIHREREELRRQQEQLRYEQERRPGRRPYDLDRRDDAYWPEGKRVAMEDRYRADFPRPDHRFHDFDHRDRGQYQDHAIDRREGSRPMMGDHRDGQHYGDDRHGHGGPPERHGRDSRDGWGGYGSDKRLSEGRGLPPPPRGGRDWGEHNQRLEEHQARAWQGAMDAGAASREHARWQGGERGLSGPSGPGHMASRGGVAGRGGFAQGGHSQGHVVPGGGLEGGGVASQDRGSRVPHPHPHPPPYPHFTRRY

| Substance | solubility change mitosis (log2) [1] | melting temperature ([2]; cell cycle stage: G1/S) [°C] | melting temperature ([2]; cell cycle stage: mitosis) [°C] | thermal stability score [3, 5] | thermal stability score ([3]; cell cycle stage: mitosis) | solubility in G1/S (log2) [4] |
| --- | --- | --- | --- | --- | --- | --- |
| MATSVLCCLRCCRDGGTGHIPLKEMPAVQLDTQHMGTDVVIVKNGRRICGTGGCLASAPLHQNKSYFEFKIQSTGIWGIGVATQKVNLNQIPLGRDMHSLVMRNDGALYHNNEEKNRLPANSLPQEGDVVGITYDHVELNVYLNGKNMHCPASGIRGTVYPVVYVDDSAILDCQFSEFYHTPPPGFEKILFEQQIF [SPRYD7] | -0.19 | 52.6 | 54.2 | 0.0977 | -1.67 | 0.156 |
| MAAVPELLQQQEEDRSKLRSVSVDLNVDPSLQIDIPDALSERDKVKFTVHTKTTLPTFQSPEFSVTRQHEDFVWLHDTLIETTDYAGLIIPPAPTKPDFDGPREKMQKLGEGEGSMTKEEFAKMKQELEAEYLAVFKKTVSSHEVFLQRLSSHPVLSKDRNFHVFLEYDQDLSVRRKNTKEMFGGFFKSVVKSADEVLFTGVKEVDDFFEQEKNFLINYYNRIKDSCVKADKMTRSHKNVADDYIHTAACLHSLALEEPTVIKKYLLKVAELFEKLRKVEGRVSSDEDLKLTELLRYYMLNIEAAKDLLYRRTKALIDYENSNKALDKARLKSKDVKLAEAHQQECCQKFEQLSESAKEELINFKRKRVAAFRKNLIEMSELEIKHARNNVSLLQSCIDLFKNN [SNX5] | -0.0436 | 52.3 | 50.9 | 0.949 | -0.872 | 0.468 |
| MAGKSSLFKVILLGDGGVGKSSLMNRYVTNKFDTQLFHTIGVEFLNKDLEVDGHFVTMQIWDTAGQERFRSLRTPFYRGSDCCLLTFSVDDSQSFQNLSNWKKEFIYYADVKEPESFPFVILGNKIDISERQVSTEEAQAWCRDNGDYPYFETSAKDATNVAAAFEEAVRRVLATEDRSDHLIQTDTVNLHRKPKPSSSCC [RAB9A] | -0.207 | 54.3 | 54.2 | -1.81 | -3.52 | -0.0893 |
| SAFB2 | 0.345 | 50.3 | 51.4 | 0.782 | 0.916 | -0.828 |
| CTSZ | -0.0457 | 56.1 | 55 | -1.5 | -2.8 | 0.192 |
| MRGAMELEPELLLQEARENVEAAQSYRRELGHRLEGLREARRQIKESASQTRDVLKQHFNDLKGTLGKLLDERLVTLLQEVDTIEQETIKPLDDCQKLIEHGVNTAEDLVREGEIAMLGGVGEENEKLWSFTKKASHIQLDSLPEVPLLVDVPCLSAQLDDSILNIVKDHIFKHGTVASRPPVQIEELIEKPGGIIVRWCKVDDDFTAQDYRLQFRKCTSNHFEDVYVGSETEFIVLHIDPNVDYQFRVCARGDGRQEWSPWSVPQIGHSTLVPHEWTAGFEGYSLSSRRNIALRNDSESSGVLYSRAPTYFCGQTLTFRVETVGQPDRRDSIGVCAEKQDGYDSLQRDQAVCISTNGAVFVNGKEMTNQLPAVTSGSTVTFDIEAVTLGTTSNNEGGHFKLRVTISSNNREVVFDWLLDQSCGSLYFGCSFFYPGWKVLVF [CRLF3] | -0.13 | 50 | 49.7 | -0.0259 | -0.0234 | -0.117 |
